Source: publication PMC4359947 (The international journal of biochemistry & cell biology, 2015)
Ends that are not written are not given here.

Target: MAGI-1 PDZ1 domain, Cy3-labelled, tag-free (Cy3 label (approximately 1 dye/peptide))
Assay: FRET or BRET

Binder: GAIPVMIPAQSKDGSIV (also: Cy5 label (approximately 1 dye/peptide), site not given here) [CAR (CAR^Ex7) C-terminus, Cy5-labelled, tag-free]
- Kd: > 500 nM
